The results in this text go back to US20250051455A1 (Hoffmann-La Roche, published 2025).

The term Kd denotes the constant that tells how readily two partners part at equilibrium. A word on the koff: it is a measure of how fast the partners let go of each other. As usually defined, the kon is the rate constant with which the complex forms.

In the experiment the target is T1, recombinant soluble human HLA-G β2M MHC class I complex, monomer (human).
T1 construct: His tagged; biotinylated where coated on streptavidin plates, non-biotinylated in SPR; also called HLA-G-0003; wt HLA-G (monomer)
Put plainly: SPR Biacore T200, antibody captured via anti-Fc, HLA-G monomer as analyte, 25 C. Here is the method: Binding kinetics of anti-HLA-G antibodies to human HLA-G, human HLA-G degrafted and human HLA-A2 were investigated by surface plasmon resonance using a BIACORE T200 instrument (GE Healthcare). All experiments were performed at 25° C. using PBS Buffer (pH 7.4+0.05% Tween20) as running buffer and PBS Buffer (+0.1% BSA) as dilution buffer. Anti-human Fc (JIR009-005-098, Jackson) or anti-rat Fc (JIR112-005-071, Jackson) or anti-Mouse Fc (JIR115-005-071, Jackson) antibodies were immobilized on a Series S CM5 Sensor Chip (GE Healthcare) at pH 5.0 by using an amine coupling kit supplied by GE Healthcare. Anti-HLA-G antibodies were captured on the surface leading to a capturing response of 50-200 RU. HLA-G molecules were injected for 180 s at 30 μl/min with concentrations from 2.5 up to 800 nM (2×1:2 and 4×1:3 dilution series) onto the surface (association phase). The dissociation phase was monitored for 300-600 sec by washing with running buffer. The surface was regenerated by injecting H3PO4 (0,85%) for 60+30 seconds for anti-human Fc capturing antibodies, glycine pH1,5 for 60 seconds and glycine pH2,0 for 60 seconds for anti-rat Fc capturing antibodies, H3PO4 (0,85%) for 80+60 seconds for anti-mouse Fc capturing antibodies. Bulk refractive index differences were corrected by subtracting the response obtained from a mock surface. Blank injections were subtracted (double referencing). The derived curves were fitted to a 1:1 Langmuir binding model using the BIAevaluation software.
The above table summarizes the antibody affinities and t½ values against wt and degrafted HLA-G as assessed by Surface plasmon resonance (Biacore) analysis. Binding kinetics of anti-HLA-G antibodies to human HLA-G and human HLA-G degrafted were investigated by surface plasmon resonance using a BIACORE T200 instrument (GE Healthcare). All experiments were performed at 25° C. using PBS Buffer (pH 7.4+0.05% Tween20) as running buffer and PBS Buffer (+0.1% BSA) as dilution buffer. Anti-human Fc (JIR009-005-098, Jackson) or anti-rat Fc (JIR112-005-071, Jackson) or anti-Mouse Fc (JIR115-005-071, Jackson) antibodies were immobilized on a Series S CM5 Sensor Chip (GE Healthcare) at pH 5.0 by using an amine coupling kit supplied by GE Healthcare.

B1: HLA-G-0031-0104 (humanized variant of HLA-G-0031) (antibody, V domains shown)
VH: QVQLVQSGAEVKKPGASVKVSCKASGYTFTDYWVSWVRQAPGQRLEWMGEISPNSGASNFDENFQGRVTITRDTSASTAYMELSSLRSEDTAVYYCTRSSHGSFRWFAYWGQGTLVTVSS
VL: DIQMTQSPSSLSASVGDRVTITCRASSSVSSNHLHWYQQKPGKAPKFLIYSTSQRASGVPSRFSGSGSGTEFTLTISSLQPEDFATYYCQQGSSNPYTFGQGTKLEIK
notes: Humanized variant (VH framework IGHV1-3, VL framework IGKV1-17 with back-mutation R46F, Kabat)
As for B1, the Kd was 0.024 µM, the dissociation rate constant (koff) turned out to be 0.002 s⁻¹, the kon was 83000 M⁻¹ s⁻¹ and the “t 1/2” value worked out at 6 min.
